Series [1] has as its target T1, LLHD3 (Mus musculus, UniProt P61372;P50481).
T1 chain: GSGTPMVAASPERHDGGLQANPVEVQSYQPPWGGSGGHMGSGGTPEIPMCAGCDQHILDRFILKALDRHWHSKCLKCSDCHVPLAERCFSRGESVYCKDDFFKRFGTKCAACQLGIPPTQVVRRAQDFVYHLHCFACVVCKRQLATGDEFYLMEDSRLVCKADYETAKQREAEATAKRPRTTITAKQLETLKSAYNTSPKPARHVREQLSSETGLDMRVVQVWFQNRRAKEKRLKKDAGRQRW
Nature of the series: EMSA.

A further series concerns the target T2, 2HD (Mus musculus, UniProt P61372;P50481).
T2 chain: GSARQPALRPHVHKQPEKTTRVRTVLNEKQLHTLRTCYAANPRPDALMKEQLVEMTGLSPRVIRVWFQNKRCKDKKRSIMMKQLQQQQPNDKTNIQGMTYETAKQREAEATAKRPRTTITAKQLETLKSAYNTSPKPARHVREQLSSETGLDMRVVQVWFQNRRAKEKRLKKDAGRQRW
The experiment in a line: SAXS.

For a further series, the target named is T3, 2HDLL (Mus musculus, UniProt P61372;P50481).
T3 chain: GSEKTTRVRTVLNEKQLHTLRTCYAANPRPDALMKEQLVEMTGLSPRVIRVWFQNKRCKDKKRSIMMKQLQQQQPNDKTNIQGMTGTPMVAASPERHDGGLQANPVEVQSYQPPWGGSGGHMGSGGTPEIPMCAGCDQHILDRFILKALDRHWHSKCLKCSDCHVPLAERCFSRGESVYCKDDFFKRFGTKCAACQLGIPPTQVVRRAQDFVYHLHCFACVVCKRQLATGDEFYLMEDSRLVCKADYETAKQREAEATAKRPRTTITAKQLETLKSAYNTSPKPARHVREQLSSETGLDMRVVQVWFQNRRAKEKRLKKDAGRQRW
The experiment in a line: SEC-MALLS, SAXS.

Series [2] has as its target T1, LLHD3. The experiment in a line: EMSA.

B1: M100 (EMSA) (dsDNA)
DNA 1: CGGCCATTAGCCAAATTACGGC
DNA 2: GCCGTAATTTGGCTAATGGCCG
Molecule B1 came in with a Kd with LLHD3 [1] of 1000 nM.

B2: M100 20-mer (SAXS) (dsDNA)
DNA 1: CCGCATTAGCCAAATTACGC
DNA 2: GCGTAATTTGGCTAATGCGG
B2: the binding result with 2HD and in the series with 2HDLL was “binds” throughout.

B3: ISL1GA (dsDNA)
DNA 1: ACCGCGTAATATCTG
DNA 2: CAGATATTACGCGGT
For B3, the binding result with LLHD3 [2] is given as “no binding”.

The record behind these values is article PMC7797366.
